The labels stand for the following.
T1: PUF4 RNA-binding domain (Saccharomyces cerevisiae, UniProt P25339 537-888)
T1 sequence: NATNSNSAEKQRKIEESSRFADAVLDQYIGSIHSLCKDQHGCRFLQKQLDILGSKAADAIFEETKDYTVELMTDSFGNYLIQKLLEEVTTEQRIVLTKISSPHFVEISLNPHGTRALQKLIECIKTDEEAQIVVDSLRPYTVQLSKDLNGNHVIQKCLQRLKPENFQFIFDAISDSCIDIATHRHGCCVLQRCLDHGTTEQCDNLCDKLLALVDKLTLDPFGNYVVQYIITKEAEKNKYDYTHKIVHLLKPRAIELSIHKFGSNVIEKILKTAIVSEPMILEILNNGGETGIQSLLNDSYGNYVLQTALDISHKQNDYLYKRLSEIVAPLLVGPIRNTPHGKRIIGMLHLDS

What is called Kd is a measure of binding affinity in units of concentration. A low value points to tighter binding.

The target of this data set is T1, PUF4 RNA-binding domain. In words: Mg; RNA-MaP; 20 mM Na-HEPES pH 7.4, 30 mM KOAc, 0.75 mM MgCl2, 0.1% Tween-20, 5% glycerol, 0.1 mg/mL BSA, 2 mM DTT; 25 C; 0.0125-409.6 nM protein. To be noted: tags: N-His6-TEV cleaved; C-SNAP kept, Cy3B-labelled; label: tethered on chip by stalled RNA polymerase.
In turn, UCUCUUUGUAUCAUGUCUCUU (ssRNA) [Ic_S1_P4E.1_K4.1_C4.1_H4.1_A4.1_[A6C]_[T7A]_F4.1_[A9G]_T4.1] showed a Kd of 8.82 nM. This lies in the single-digit nanomolar range.
Turning to UCUCUUUGUAUCGACUCUCUU (ssRNA) [Ic_S1_P4E.1_K4.1_C4.1_H4.1_A4.1_[A6C]_[T7G]_F4.1_[T8A]_[A9C]_T4.1], the Kd is more than 2300 nM.
Turning to UCUCUUUGUAUGCAGUCUCUU (ssRNA) [Ic_S1_P4E.1_K4.1_C4.1_H4.1_A4.1_[A6G]_[T7C]_F4.1_[T8A]_[A9G]_T4.1], the Kd is more than 2300 nM.
In turn, UCUCUUUGUAUCUACUCUCUU (ssRNA) [Ic_S1_P4E.1_K4.1_C4.1_H4.1_A4.1_[A6C]_F4.1_[T8A]_[A9C]_T4.1] displayed a Kd of 28.9 nM.
In the case of UCUCUUUGUAUGCGUUCUCUU (ssRNA) [Ic_S1_P4E.1_K4.1_C4.1_H4.1_A4.1_[A6G]_[T7C]_F4.1_[T8G]_[A9T]_T4.1], the Kd came to 1210 nM.
Next, UCUCUUUGUAUCUGUUCUCUU (ssRNA) [Ic_S1_P4E.1_K4.1_C4.1_H4.1_A4.1_[A6C]_F4.1_[T8G]_[A9T]_T4.1]: 58.6 nM; UCUCUUUGUAUUGCCUCUCUU (ssRNA) [Ic_S1_P4E.1_K4.1_C4.1_H4.1_A4.1_[A6T]_[T7G]_F4.1_[T8C]_[A9C]_T4.1]: 943 nM.
UCUCUUUGUAUCCACUCUCUU (ssRNA) [Ic_S1_P4E.1_K4.1_C4.1_H4.1_A4.1_[A6C]_[T7C]_F4.1_[T8A]_[A9C]_T4.1] displayed a Kd of 981 nM. The Kd values of the last two molecules are within 1.5-fold of each other.
For the molecule UCUCUUUGUAUCCAUUCUCUU (ssRNA) [Ic_S1_P4E.1_K4.1_C4.1_H4.1_A4.1_[A6C]_[T7C]_F4.1_[T8A]_[A9T]_T4.1], the affinity, expressed as Kd, was 362 nM.
For UCUCUUUGUAUCACAUCUCUU (ssRNA) [Ic_S1_P4E.1_K4.1_C4.1_H4.1_A4.1_[A6C]_[T7A]_F4.1_[T8C]_T4.1] the value was 74.8 nM; for UCUCUUUGUAUCAUUUCUCUU (ssRNA) [Ic_S1_P4E.1_K4.1_C4.1_H4.1_A4.1_[A6C]_[T7A]_F4.1_[A9T]_T4.1], 11.2 nM.
The molecule UCUCUUUGUAUCAGCUCUCUU (ssRNA) [Ic_S1_P4E.1_K4.1_C4.1_H4.1_A4.1_[A6C]_[T7A]_F4.1_[T8G]_[A9C]_T4.1] yielded a Kd of 606 nM. This Kd lies about 54-fold higher than the previous one.
Next, UCUCUUUGUAUCUCGUCUCUU (ssRNA) [Ic_S1_P4E.1_K4.1_C4.1_H4.1_A4.1_[A6C]_F4.1_[T8C]_[A9G]_T4.1]: 382 nM.
Next, UCUCUUUGUAAAAAUCUCUU (ssRNA) [Ic_S1_P3E.1_K3.1_C3.1_H3.1_A3.1_[T5A]_F3.1_[T7A]_T3.1]: 367 nM; UCUCUUUGUAUGCCAUCUCUU (ssRNA) [Ic_S1_P4E.1_K4.1_C4.1_H4.1_A4.1_[A6G]_[T7C]_F4.1_[T8C]_T4.1]: 472 nM; UCUCUUUGUAUGACUUCUCUU (ssRNA) [Ic_S1_P4E.1_K4.1_C4.1_H4.1_A4.1_[A6G]_[T7A]_F4.1_[T8C]_[A9T]_T4.1]: 804 nM.
Next, UCUCUUUGUAUGUAGUCUCUU (ssRNA) [Ic_S1_P4E.1_K4.1_C4.1_H4.1_A4.1_[A6G]_F4.1_[T8A]_[A9G]_T4.1]: 106 nM.
In the case of UCUCUUUGUAUCGGUUCUCUU (ssRNA) [Ic_S1_P4E.1_K4.1_C4.1_H4.1_A4.1_[A6C]_[T7G]_F4.1_[T8G]_[A9T]_T4.1], the Kd amounted to 938 nM.
Turning to UCUCUUUGUAUCGAUCUCUU (ssRNA) [Ib_S1_P3E.1_K3.1_C3.1_H3.1_A3.1_[A6C]_F3.1_[T7G]_T3.1], the Kd was determined as 1020 nM. This Kd and that of the molecule before are within 1.5-fold of each other.
Next, UCUCUUUGUAUCGUGUCUCUU (ssRNA) [Ic_S1_P4E.1_K4.1_C4.1_H4.1_A4.1_[A6C]_[T7G]_F4.1_[A9G]_T4.1]: 432 nM.
The molecule UCUCUUUGUAUCGAUUCUCUU (ssRNA) [Ic_S1_P4E.1_K4.1_C4.1_H4.1_A4.1_[A6C]_[T7G]_F4.1_[T8A]_[A9T]_T4.1] showed a Kd of 581 nM.
In turn, UCUCUUUGUAUCGCUUCUCUU (ssRNA) [Ic_S1_P4E.1_K4.1_C4.1_H4.1_A4.1_[A6C]_[T7G]_F4.1_[T8C]_[A9T]_T4.1] returned a Kd of 682 nM.
As for UCUCUUUGUAUCCAGUCUCUU (ssRNA) [Ic_S1_P4E.1_K4.1_C4.1_H4.1_A4.1_[A6C]_[T7C]_F4.1_[T8A]_[A9G]_T4.1], the Kd turned out to be 2020 nM.
On to UCUCUUUGUAUGCAAUCUCUU (ssRNA) [Ic_S1_P4E.1_K4.1_C4.1_H4.1_A4.1_[A6G]_[T7C]_F4.1_[T8A]_T4.1], for which the Kd was found to be 516 nM.
For UCUCUUUGUAUGCUGUCUCUU (ssRNA) [Ic_S1_P4E.1_K4.1_C4.1_H4.1_A4.1_[A6G]_[T7C]_F4.1_[A9G]_T4.1] the value was 685 nM; for UCUCUUUGUAUUUAUCUCUU (ssRNA) [Ia_S1_P3E.1_K3.1_C3.1_H3.1_A3.1_[A6T]_F3.1_T3.1], 36.2 nM; for UCUCUUUGUAUGUACUCUCUU (ssRNA) [Ic_S1_P4E.1_K4.1_C4.1_H4.1_A4.1_[A6G]_F4.1_[T8A]_[A9C]_T4.1], 41.5 nM.
Next, UCUCUUUGUAUCCUUUCUCUU (ssRNA) [Ic_S1_P4E.1_K4.1_C4.1_H4.1_A4.1_[A6C]_[T7C]_F4.1_[A9T]_T4.1]: 44.9 nM.
For UCUCUUUGUAUCAGUUCUCUU (ssRNA) [Ic_S1_P4E.1_K4.1_C4.1_H4.1_A4.1_[A6C]_[T7A]_F4.1_[T8G]_[A9T]_T4.1] the value was 316 nM.

Source of the values: article PMC9352680, “A comprehensive thermodynamic model for RNA binding by the Saccharomyces cerevisiae Pumilio protein PUF4”.
